The results in this text go back to patent US20250163182A1 (Janssen / Centocor, published 2025).

The target in one assay is T1, human ENPP3 (human, UniProt O14638 46-875, limits assumed).
T1 construct: neither the construct nor the method is stated; also called ectonucleotide pyrophosphatase/phosphodiesterase family member 3
T1 sequence (looked up): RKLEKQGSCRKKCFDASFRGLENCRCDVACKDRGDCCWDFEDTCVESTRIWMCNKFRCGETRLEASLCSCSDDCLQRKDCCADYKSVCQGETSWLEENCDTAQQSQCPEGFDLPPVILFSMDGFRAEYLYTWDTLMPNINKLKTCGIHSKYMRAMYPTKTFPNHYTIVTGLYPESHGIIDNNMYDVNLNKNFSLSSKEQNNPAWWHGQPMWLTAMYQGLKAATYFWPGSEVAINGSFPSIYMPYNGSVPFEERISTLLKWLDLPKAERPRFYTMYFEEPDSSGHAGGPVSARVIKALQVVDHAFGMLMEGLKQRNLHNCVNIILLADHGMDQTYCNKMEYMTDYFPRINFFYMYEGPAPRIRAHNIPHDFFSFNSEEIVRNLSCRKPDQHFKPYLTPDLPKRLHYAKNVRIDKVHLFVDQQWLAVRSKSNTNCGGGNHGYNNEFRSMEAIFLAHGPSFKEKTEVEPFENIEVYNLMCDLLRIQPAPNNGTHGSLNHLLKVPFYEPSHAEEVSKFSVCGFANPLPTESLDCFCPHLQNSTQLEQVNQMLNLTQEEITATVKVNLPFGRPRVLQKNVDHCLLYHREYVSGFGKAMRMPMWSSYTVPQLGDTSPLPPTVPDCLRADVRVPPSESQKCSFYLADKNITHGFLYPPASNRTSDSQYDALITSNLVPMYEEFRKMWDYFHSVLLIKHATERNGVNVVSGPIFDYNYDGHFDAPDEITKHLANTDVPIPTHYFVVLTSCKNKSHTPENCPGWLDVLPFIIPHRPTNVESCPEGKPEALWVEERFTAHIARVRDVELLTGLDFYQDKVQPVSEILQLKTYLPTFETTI
Description: binding affinity to human ENPP3; method not stated.

The next assay deals with T2, cynomolgus monkey ENPP3 (cynomolgus monkey, UniProt A0A2K5TKP4 46-874).
T2 construct: also called cyno ENPP3
T2 sequence: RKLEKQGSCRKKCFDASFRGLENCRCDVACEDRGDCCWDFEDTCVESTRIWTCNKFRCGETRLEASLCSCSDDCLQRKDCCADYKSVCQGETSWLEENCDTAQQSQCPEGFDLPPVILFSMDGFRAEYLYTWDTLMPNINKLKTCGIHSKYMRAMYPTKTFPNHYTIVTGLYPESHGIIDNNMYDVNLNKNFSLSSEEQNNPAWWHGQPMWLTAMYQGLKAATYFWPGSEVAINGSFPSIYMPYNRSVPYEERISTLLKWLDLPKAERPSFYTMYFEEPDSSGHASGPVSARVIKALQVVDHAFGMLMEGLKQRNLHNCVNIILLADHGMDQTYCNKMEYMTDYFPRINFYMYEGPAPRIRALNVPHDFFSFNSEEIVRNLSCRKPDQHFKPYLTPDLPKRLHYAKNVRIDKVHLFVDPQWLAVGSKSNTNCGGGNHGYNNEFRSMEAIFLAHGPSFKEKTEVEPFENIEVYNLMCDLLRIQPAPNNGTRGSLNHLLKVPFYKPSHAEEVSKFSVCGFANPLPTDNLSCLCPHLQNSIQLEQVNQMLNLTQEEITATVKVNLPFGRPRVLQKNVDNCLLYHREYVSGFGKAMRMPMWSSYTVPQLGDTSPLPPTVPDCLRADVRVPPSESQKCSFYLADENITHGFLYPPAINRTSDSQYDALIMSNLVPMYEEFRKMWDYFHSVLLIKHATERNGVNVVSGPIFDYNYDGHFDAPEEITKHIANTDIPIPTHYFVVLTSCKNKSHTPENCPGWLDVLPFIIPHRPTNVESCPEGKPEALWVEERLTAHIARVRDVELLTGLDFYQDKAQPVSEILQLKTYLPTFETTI
In words: binding affinity to cyno ENPP3; method not stated; biphasic.

B1: NPP3B100 (antibody, V domains shown)
VH: QVQLQESGPGLVKTSETLSLTCTVSGGSISSHYWSWIRQPPGKGLEWIGNIFYSGSTNYNPSLKSRVTMSVDTSKNHFSLKLISVTTADTAIYYCARHDHVWFDPWGQGTLVTVSS
VL: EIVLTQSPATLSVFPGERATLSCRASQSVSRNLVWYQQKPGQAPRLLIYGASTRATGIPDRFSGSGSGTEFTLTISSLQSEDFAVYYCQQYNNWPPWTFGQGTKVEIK
notes: mAb from Ablexis Kappa mice
Molecule B1 returned a Kd in the assay with human ENPP3 of 0.0977 nM.

B2: NPP3B60 (antibody, V domains shown)
VH: QVQLVQSGAEVKKPGESLKISCKGSGYGFTNYWIGWVRQMPGKGLEWMGIIYPSDSNTRYSPSFQGQVTISADKSINTAYLQWSSLKASDTAMYYCTRQNYYYYTMDVWGQGTTVTVSS
VL: DIQMTQSPSFLSASVGDRVTITCRASQVIRSYLAWYQQKPGKAPKLLIYGASTLQSGFPSRFSGSGSGTEFTLTISSLQPEDFATYYCQQLNSYPRTFGQGTKVEIK
notes: mAb from Ablexis Kappa mice
With B2, the Kd in the assay with cynomolgus monkey ENPP3 is about 1 nM; in the assay with human ENPP3 it was 0.448 nM.

B3: NPP3B107 (antibody, V domains shown)
VH: EVQLVESGGGLVKPGGSLRLSCAASGFIFSDYSMNWVRQAPGKGLEWVSSISSGSSYIYYADSLKGRFTISRDNAKNSLYLQMSSLRAEDTAVYYCVRGLDYFDYWGQGALVTVSS
VL: DIQMTQSPSFLSASVGDRVTITCRASQDISNYLAWYQQKPGRAPKLLIYVASTLQSGVPSRFSGSGSGTEFTLTISSLQPEDFATYYCQQLNSYPRTFGQGTKVEIK
notes: mAb from Ablexis Kappa mice
Consider B3, for which the figures for the Kd with cynomolgus monkey ENPP3 and in the assay with human ENPP3 were about 20 nM and 0.133 nM, respectively.

B4: NPP3B98 (antibody, V domains shown)
VH: QVQLQESGPGLVKPSETLSLTCTVSGGSISNYYWSWIRQPAGKGLEWIGRIYASGSTNYNPSLKSRVTMSVDTSKNQFSLRLRSVTATDTAVYYCAREGYSSTLYDNAFDFWGQGTMVTVSS
VL: DIQMTQSPSSVSASVGGRVTITCRASQGISTWLAWYQQKPGKAPKLLIYAASSLQSGVPSRFSGSGSGTDFTLTISSLQPEDFATYYCQQANSFPLTFGGGTKVEIK
notes: mAb from Ablexis Kappa mice
Take B4: the Kd with cynomolgus monkey ENPP3 is about 1 nM; with human ENPP3, 0.129 nM.

B5: NPP3B56 (antibody, V domains shown)
VH: EVQLVESGGGRVKPGGSLRLSCAASGFTFSDYSMNWVRQAPGKGLEWVSSISSISSYVKYADSVKGRFTMSRDNAKNSLFLQMNSLRDEDMAVYYCARGHYFDYWGQGTLVTVSS
VL: EIVMTQSPATLSVSPGERATLSCRASQSVSSNLAWYQQKPGLAPRLLIYGASTRATGIPARFSGSGSGTEFTLTISSLQSEDFAVYYCQQYNNWPRTFGQGTKVEIK
notes: mAb from Ablexis Kappa mice
Regarding B5, the Kd with cynomolgus monkey ENPP3 is about 2 nM; with human ENPP3, 0.215 nM.

B6: NPP3B64 (antibody, V domains shown)
VH: QVQLVQSGAEVKKPGASVKVSCKASGYTFTTYYIHWVRQAPGQGLEWMGIINPSGGSTNYAQKFQGRVTMTRDTSTRIVYMELGSLRSEDTAVYYCARDYYYYYYGMDVWGQGTTVTVSS
VL: DIVMTQSPLSLPVTLGQPASISCRSSQSLVRNGGYTYLNWLQQRPGQPPRLLIYQISNRFSGVPDRFSGSGAGTDFTLTISRVEAEDVGVYYCMQATQFPHTFGQGTKLEIK
notes: mAb from Ablexis Kappa mice
Consider B6, for which the dissociation constant (Kd) was about 2 nM in the assay with cynomolgus monkey ENPP3 and 0.536 nM with human ENPP3.

B7: NPP3B86 (antibody, V domains shown)
VH: QVQLVQSGAEVKKPGASVKVSCKASGYTVTNYYIFWVRQAPGQGLEWMGWINPNSGGTNYAQKFQGRVTMTRDTSINTAYMKLSRLGSDDTAVYYCARGGYSGYALSSHYGMDVWGQGTMVTVSS
VL: EIVLTQSPGTLSLSPGERATLSCRASQSVSSSYLAWYQQKPGQAPRLLIYDASSRATGIPDRFSGSGSGTDFTLIISRLEPEDFAVYYCQQYDSSPLTFGGGTKVEIK
notes: mAb from Ablexis Kappa mice
With B7, the Kd with cynomolgus monkey ENPP3 was about 5 nM; in the assay with human ENPP3 it was 0.245 nM.
